Test results reported in US9517265B2, “Methods for the prevention and/or treatment of memory impairment” (The Governing Council of the University of Toronto, priority 2010, dated 2016).
Entries after “also recorded” stand apart in the source; their conditions may differ.

Legend:
α5GABAARs [1] = biological target: T1, α5GABAARs (Mus musculus, UniProt P22723+Q8BHJ7); experiment: Fear conditioning after IL-1β or LPS injection; assay type: in vivo, mice; conditions: for contextual fear memory, WT mice (in words): IL-1β 1 μg kg^−1 i.p. or LPS 125 μg kg^−1 i.p. 3 h before conditioning, inverse agonist co-administered; for cued fear memory to a conditioned tone stimulus (in words): mouse, in vivo
T1 sequence (Q8BHJ7 32-463 limits assumed): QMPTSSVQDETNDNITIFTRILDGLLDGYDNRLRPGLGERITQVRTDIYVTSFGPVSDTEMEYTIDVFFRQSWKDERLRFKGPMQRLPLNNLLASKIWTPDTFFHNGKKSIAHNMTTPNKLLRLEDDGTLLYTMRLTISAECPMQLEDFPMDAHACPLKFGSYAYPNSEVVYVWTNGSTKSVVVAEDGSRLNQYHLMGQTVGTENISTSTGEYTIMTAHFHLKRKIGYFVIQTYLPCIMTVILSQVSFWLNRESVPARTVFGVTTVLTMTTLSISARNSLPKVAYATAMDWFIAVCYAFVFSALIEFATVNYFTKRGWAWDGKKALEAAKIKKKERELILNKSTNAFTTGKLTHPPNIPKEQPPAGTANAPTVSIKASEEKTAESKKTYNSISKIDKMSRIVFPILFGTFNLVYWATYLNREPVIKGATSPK
T1 sequence (P63080 26-473 partner): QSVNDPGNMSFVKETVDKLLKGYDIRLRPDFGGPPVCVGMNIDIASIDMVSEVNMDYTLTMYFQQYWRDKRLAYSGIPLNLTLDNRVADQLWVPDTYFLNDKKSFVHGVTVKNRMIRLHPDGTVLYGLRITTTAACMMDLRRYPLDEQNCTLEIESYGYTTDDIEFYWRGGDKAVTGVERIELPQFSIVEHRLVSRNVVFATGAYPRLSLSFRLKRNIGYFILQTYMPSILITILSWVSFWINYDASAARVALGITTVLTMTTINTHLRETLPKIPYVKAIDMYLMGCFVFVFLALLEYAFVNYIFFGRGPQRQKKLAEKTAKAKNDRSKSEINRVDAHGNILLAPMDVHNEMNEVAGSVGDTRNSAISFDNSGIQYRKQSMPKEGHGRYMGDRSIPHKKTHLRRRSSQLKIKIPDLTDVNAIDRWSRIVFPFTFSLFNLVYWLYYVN
T1 sequence (P22723 39-474): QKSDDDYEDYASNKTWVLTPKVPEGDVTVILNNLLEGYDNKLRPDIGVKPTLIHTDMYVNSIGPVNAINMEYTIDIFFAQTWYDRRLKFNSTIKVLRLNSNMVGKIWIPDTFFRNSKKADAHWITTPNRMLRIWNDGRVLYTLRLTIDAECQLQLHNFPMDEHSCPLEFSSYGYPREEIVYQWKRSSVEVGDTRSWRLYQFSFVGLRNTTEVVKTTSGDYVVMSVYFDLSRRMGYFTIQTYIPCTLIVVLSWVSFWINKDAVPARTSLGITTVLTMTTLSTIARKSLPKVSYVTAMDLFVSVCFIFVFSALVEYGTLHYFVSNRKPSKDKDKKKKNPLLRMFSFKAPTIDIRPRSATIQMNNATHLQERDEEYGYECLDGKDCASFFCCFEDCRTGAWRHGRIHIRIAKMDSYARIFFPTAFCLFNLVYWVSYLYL
Description: Pavlovian fear-conditioning tasks were used for behavioral analysis^29. LPS (125 μg kg^−1, i.p., with physiological saline as the vehicle control) or IL-1β (1 μg kg^−1, i.p., with 0.1% bovine serum albumin as the vehicle control) was injected into male 3- to 4-month-old WT and Gabra5−/− mice 3 h before conditioning. The intensity of the electric footshock was 0.5 mA. For some mice, the inverse agonist L-655,708 (0.35 or 0.5 mg kg^−1, i.p.) or vehicle control (10% DMSO, i.p.) was injected 30 min before training. The movement of the mouse was monitored. The percentage of time that each mouse spent in a freezing position was determined using FreezeView software (Version 2.26, Actimetrics Inc, Wilmette, Ill., USA).
We have determined that IL-1β-induced impairment of contextual fear memory can be reversed by pharmacological inhibition of α5GABAA receptors by the inverse agonist MRK-016. Fear conditioning was performed 3 h after injection of IL-1β (1 μg kg^−1, i.p.) in both wild-type (WT) and α5GABAA receptor knock out (Gabra5−/−) mice. Mice were trained to associate a context (contextual fear) and a tone (cued fear) with an aversive electric footshock. 24 h after conditioning each mouse was placed in the training context, and contextual fear memory was measured as the percentage of time spent freezing. Cued fear memory was measured 48 h after training as the percentage of time spent freezing to the conditioned auditory tone in a novel context.

[2] = biological target: T2, GABAA receptor α5-subtype (Homo sapiens, UniProt P18507+P31644); conditions: inverse agonist selective for the α5-subtype; cited from earlier work
T2 sequence (P31644 32-462): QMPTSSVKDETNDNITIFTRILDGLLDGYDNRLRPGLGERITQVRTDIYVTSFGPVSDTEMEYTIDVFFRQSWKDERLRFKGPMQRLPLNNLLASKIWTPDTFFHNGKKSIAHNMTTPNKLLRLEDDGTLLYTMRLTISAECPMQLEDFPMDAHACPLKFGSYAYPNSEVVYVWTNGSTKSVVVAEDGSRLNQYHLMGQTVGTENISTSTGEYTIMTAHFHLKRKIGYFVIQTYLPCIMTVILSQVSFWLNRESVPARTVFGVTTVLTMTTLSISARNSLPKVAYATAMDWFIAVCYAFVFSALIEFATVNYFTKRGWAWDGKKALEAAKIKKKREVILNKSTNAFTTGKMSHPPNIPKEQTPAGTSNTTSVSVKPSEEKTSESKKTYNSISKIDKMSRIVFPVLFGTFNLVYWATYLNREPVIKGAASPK
T2 sequence (P28472 26-473 partner): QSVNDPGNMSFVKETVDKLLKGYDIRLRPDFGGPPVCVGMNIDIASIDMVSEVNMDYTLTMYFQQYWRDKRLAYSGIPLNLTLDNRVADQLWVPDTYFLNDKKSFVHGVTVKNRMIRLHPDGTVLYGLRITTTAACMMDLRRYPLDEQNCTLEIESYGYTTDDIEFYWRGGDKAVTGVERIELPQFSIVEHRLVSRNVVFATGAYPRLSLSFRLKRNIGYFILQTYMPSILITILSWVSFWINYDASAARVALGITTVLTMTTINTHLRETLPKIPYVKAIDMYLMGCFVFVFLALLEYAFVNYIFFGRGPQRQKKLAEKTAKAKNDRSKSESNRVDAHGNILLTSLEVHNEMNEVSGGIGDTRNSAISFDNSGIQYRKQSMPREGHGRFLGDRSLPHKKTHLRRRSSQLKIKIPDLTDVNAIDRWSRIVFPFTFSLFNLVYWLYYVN
T2 sequence (P18507 40-467 limits assumed): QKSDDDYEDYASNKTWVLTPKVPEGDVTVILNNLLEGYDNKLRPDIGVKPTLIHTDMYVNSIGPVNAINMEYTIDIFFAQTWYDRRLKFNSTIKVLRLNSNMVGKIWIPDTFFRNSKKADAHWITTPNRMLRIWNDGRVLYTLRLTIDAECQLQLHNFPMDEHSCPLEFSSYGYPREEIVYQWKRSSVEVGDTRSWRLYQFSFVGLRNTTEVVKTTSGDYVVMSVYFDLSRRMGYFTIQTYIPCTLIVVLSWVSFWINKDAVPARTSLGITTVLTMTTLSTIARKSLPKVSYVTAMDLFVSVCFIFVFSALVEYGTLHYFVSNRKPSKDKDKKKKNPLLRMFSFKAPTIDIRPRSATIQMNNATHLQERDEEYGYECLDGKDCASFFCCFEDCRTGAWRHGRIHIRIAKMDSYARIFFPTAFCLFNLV

α5GABAARs [3] = biological target: T1, α5GABAARs; experiment: Tonic inhibitory current, whole cell voltage-clamp in cultured hippocampal neurons; assay type: cell-based, mice; design: endogenous in cells; host or cells: primary embryonic mouse hippocampal neurons, alone or co-cultured with cortical microglia; conditions: for effect on the tonic current (in words): cultured hippocampal neurons
synaptic GABAARs = experiment: Miniature inhibitory postsynaptic currents (mIPSCs) in cultured hippocampal neurons; assay type: cell-based, mice; conditions: IL-1β 20 ng ml^−1
postsynaptic GABAARs = experiment: Whole-cell currents evoked by exogenous GABA (10 μM) in cultured hippocampal neurons; assay type: cell-based, mice; conditions: IL-1β 20 ng ml−1; GABA 10 μM; n=9
α5GABAARs [4] = experiment: Tonic current in ex vivo hippocampal slices (CA1 pyramidal neurons); assay type: cell-based; conditions: slices from WT mice treated with IL-1β 1 μg kg^−1 i.p. 2-3 h before sacrifice, n=6
Description: Recordings were performed as previously described^29. Hippocampal slices ([…]) were prepared from male 3- to 4-week-old WT mice with a mixed genetic background (C57BL/6/SvEv129). Mice were injected with vehicle (0.1% bovine serum albumin, i.p.) or IL-1β ([…], i.p.) 2-3 hours before sacrifice. To record the tonic GABAergic current, […] GABA was added, and the GABAAR competitive antagonist Bic ([…]) was applied to reveal the tonic current. All cells were recorded at a holding potential of −60 mV.

α1 subunit of GABAARs = experiment: Hippocampal slice cell surface biotinylation assay; assay type: cell-based, C57BL/6 mice; conditions: IL-1β 20 ng ml−1, 40 min, n=5
Description: (§1) Cell surface biotinylation assay for α5 and α1 subunits of GABAARs was performed as previously described^25. Hippocampal slices ([…]) from male 10- to 14-week-old C57BL/6 mice were treated with IL-1β (20 ng ml^1, 40 min). Anti-GABAAR α1 and α5 antibodies were obtained from PhosphoSolutions (Aurora, Calif., USA).

α5 subunit of GABAARs = experiment: Hippocampal slice cell surface biotinylation assay; assay type: cell-based, C57BL/6 mice
Description: as §1

Q: Which “contextual fear memory, WT mice (in words)” value (α5GABAARs [1]) does the source give for `Cc1cc(-c2nncc3c(C(C)(C)C)c(OCc4ncnn4C)nn23)no1` [MRK-016, 3-(1,1-Dimethylethyl)-7-(5-methyl-3-isoxazolyl)-2-[(1-methyl-1H-1,2,4-triazol-5-yl)methoxy]-pyrazolo[1,5-d][1,2,4]triazine] here?
A: Its value is “restored freezing scores for contextual fear memory to control values”.

Q: What about the “contextual fear memory, WT mice (in words)” value (α5GABAARs [1]; listed as MRK-016A) of the same molecule?
A: The value was “reverses memory deficits associated with inflammation”.

Q: And the “cued fear memory to a conditioned tone stimulus (in words)” value (α5GABAARs [1])?
A: Its value is “did not affect freezing to a conditioned tone stimulus”.

Q: What about the EC50 [2] of the same molecule?
A: Its EC50 is 3 nM.

Q: And the “effect on the tonic current (in words)” value (α5GABAARs [3])?
A: Its value is “inhibited the tonic current; also recorded: blocks the tonic inhibitory current in hippocampal neurons from mice”.

B1: IL-1β: pro-inflammatory cytokine interleukin-1β; recombinant mouse IL-1β; IL-13 and IL-β in b369 are misprints (protein, UniProt P10749 118-269, looked up)
Interleukin-1 beta: VPIRQLHYRLRDEQQKSLVLSDPYELKALHLNGQNINQQVIFSMSFVQGEPSNDKIPVALGLKGKNLYLSCVMKDGTPTLQLESVDPKQYPKKKMEKRFVFNKIEVKSKVEFESAEFPNWYISTSQAEHKPVFLGNNSGQDIIDFTMESVSS
Q: With B1 as the molecule, how does the “reduction of the amplitude of the mIPSCs” value (synaptic GABAARs) read?
A: The value was 17.3%±3.1%.

Q: And the “reduction of the charge transfer of the mIPSCs” value (synaptic GABAARs)?
A: Its value is 22.2%±7.0%.

Q: What about the “mIPSC Amplitude” value (synaptic GABAARs; IL-1ra 250 ng ml^−1, mean ± S.E.M., n = 6) of the same molecule?
A: Its value is 24.7 ± 2.1 pA.

Q: And the “mIPSC Area” value (synaptic GABAARs; IL-1ra 250 ng ml^−1, n = 6)?
A: Its value is 279.0 pA · ms.

Q: And the “mIPSC Decay time” value (synaptic GABAARs; IL-1ra 250 ng ml^−1, n = 6)?
A: Its value is 14.8 ± 1.1 ms.

Q: What about the “mIPSC Frequency” value (synaptic GABAARs; IL-1ra 250 ng ml^−1, n = 6) of the same molecule?
A: Its value is 3.7 ± 2.3 Hz.

Q: And the “mIPSC Rise time” value (synaptic GABAARs; IL-1ra 250 ng ml^−1, n = 6)?
A: The value was 2.4 ± 0.1 ms.

Q: And the “inhibition of the GABA-evoked peak current” value (postsynaptic GABAARs)?
A: The value was 27.8%±2.2%.

Q: What about the “inhibition of the GABA-evoked steady-state current” value (postsynaptic GABAARs) of the same molecule?
A: The value was 12.7%±1.5%.

Q: What about the tonic current (α5GABAARs [4]) of the same molecule?
A: Its tonic current is 44.9±9.4 pA.

Q: What about the “surface expression of α1 subunits (in words)” value (α1 subunit of GABAARs) of the same molecule?
A: Its value is “caused no increase in the surface expression of α1 subunits”.

Q: And the “α5 subunits expressed on the surface of the neurons” value (α5 subunit of GABAARs; IL-1β 20 ng ml−1, 40 min, n=3)?
A: Its value is 183.3%±29.6%.

Q: What about the “surface expression of α5GABAARs (in words)” value (α5 subunit of GABAARs; IL-1β 20 ng/ml for 20 or 40 min, preliminary study) of the same molecule?
A: The value was “dramatically increases the surface expression of α5GABAARs”.

Q: And the “contextual fear memory, Gabra5−/− mice (in words)” value (α5GABAARs [1]; IL-1β 1 μg kg^−1 i.p. or LPS 125 μg kg^−1 i.p.)?
A: Its value is “exhibited no such deficits”.

Q: And the “contextual fear memory, WT mice (in words)” value (α5GABAARs [1])?
A: Its value is “showed impairment of contextual fear memory”.

Q: And the “cued fear memory to a conditioned tone stimulus (in words)” value (α5GABAARs [1])?
A: The value was “cued fear memory to a conditioned tone stimulus was not affected by IL-1β”.

Q: What about the “increase of the amplitude of the tonic current” value (α5GABAARs [3]; 20 ng ml^−1 for 20 min) of the same molecule?
A: The value was 45%.

Q: And the tonic current density (α5GABAARs [3]; IL-1β 20 ng ml^−1 20 min with or without SB203,580 20 μM 30 min)?
A: The tonic current density was 1.4±0.1 pA pF^−1.

Q: What about the “variance of the noise (root mean square deviation)” value (α5GABAARs [3]; IL-1β 20 ng ml^−1 for 20 min, n=22) of the same molecule?
A: The value was 9.8±0.7 pA.

Q: What about the tonic current density (α5GABAARs [3]; IL-1β 20 ng ml^−1 for 20 min, revealed by bicuculline 100 μM, n=22) of the same molecule?
A: The tonic current density was 1.6±0.1 pA pF^−1.

Q: And the tonic current density (α5GABAARs [3]; IL-1β 60 ng ml^−1 for 3 h, n=6)?
A: Its tonic current density is 2.0±0.3 pA pF^−1.

Q: What about the tonic current density (α5GABAARs [3]; IL-1β for 12-15 h, n=21) of the same molecule?
A: The tonic current density was 1.3±0.6 pA pF^−1.

Q: What about the “effect on the tonic current (in words)” value (α5GABAARs [3]) of the same molecule?
A: The value was “increased the amplitude of the tonic current; also recorded: increased the tonic current recorded in wild-type (WT) neurons but not in neurons isolated from Gabra5−/− mice”.
